T1: similar peptide SP-05-0002, source protein not stated peptide on HLA-A*02:01 (human)
T1 peptide: KIFSGLLKV

T2: similar peptide SP-05-0003, source protein not stated peptide on HLA-A*02:01 (human)
T2 peptide: KVTEMLVNV

T3: similar peptide SP-05-0004, source protein not stated peptide on HLA-A*02:01 (human)
T3 peptide: KIWEWLVGV

T4: similar peptide SP-05-0005, source protein not stated peptide on HLA-A*02:01 (human)
T4 peptide: KIEEFLEAV

T5: similar peptide SP-05-0006, source protein not stated peptide on HLA-A*02:01 (human)
T5 peptide: KIAELLENV

T6: similar peptide SP-05-0007, source protein not stated peptide on HLA-A*02:01 (human)
T6 peptide: KIFPALCTV

T7: similar peptide SP-05-0008, source protein not stated peptide on HLA-A*02:01 (human)
T7 peptide: KILDELEKV

T8: similar peptide SP-05-0009, source protein not stated peptide on HLA-A*02:01 (human)
T8 peptide: KIIDLLPKV

T9: similar peptide SP-05-0010, source protein not stated peptide on HLA-A*02:01 (human)
T9 peptide: RIFETVNSV

T10: CT45-IP alanine variant, position 1 peptide on HLA-A*02:01 (human)
T10 peptide: AIFEMLEGV

T11: CT45-IP alanine variant, position 8 peptide on HLA-A*02:01 (human)
T11 peptide: KIFEMLEAV

T12: similar peptide SP-05-0001, source protein not stated peptide on HLA-A*02:01 (human)
T12 peptide: HIMEHLEGV

T13: CT45 (CT45A1, A2, A3, A5 to A10); CT45-IP peptide on HLA-A*02:01 (human)
T13 peptide: KIFEMLEGV

B1: TCR-15 (TCR, V domains shown)
Valpha: KQEVTQIPAALSVPEGENLVLNCSFTDSAIYNLQWFRQDPGKGLTSLLLIQSSQREQTSGRLNASLDKSSGRSTLYIAASQPGDSATYLCAVLLTGKLIFGQGTTLQVKP
Vbeta: GVTQTPRYLIKTRGQQVTLSCSPISGHRSVSWYQQTPGQGLQFLFEYFSETQRNKGNFPGRFSGRQFSNSRSEMNVSTLELGDSALYLCASSGGPGPSGEQYFGPGTRLTVT
B2: TCR-3 (TCR, V domains shown)
Valpha: QKITQTQPGMFVQEKEAVTLDCTYDTSDQSYGLFWYKQPSSGEMIFLIYQGSYDEQNATEGRYSLNFQKARKSANLVISASQLGDSAMYFCGYSNYQLIWGAGTKLIIKP
Vbeta: QVTQNPRYLITVTGKKLTVTCSQNMNHEYMSWYRQDPGLGLRQIYYSMNVEVTDKGDVPEGYKVSRKEKRNFPLILESPSPNQTSLYFCASREGTGGYQPQHFGDGTRLSIL
B3: TCR-2 (TCR, V domains shown)
Valpha: QKITQTQPGMFVQEKEAVTLDCTYDTSDQSYGLFWYKQPSSGEMIFLIYQGSYDEQNATEGRYSLNFQKARKSANLVISASQLGDSAMYFCAMREGSDAGGTSYGKLTFGQGTILTVHP
Vbeta: GVIQSPRHLIKEKRETATLKCYPIPRHDTVYWYQQGPGQDPQFLISFYEKMQSDKGSIPDRFSAQQFSDYHSELNMSSLELGDSALYFCASSPSTGRLNTEAFFGQGTRLTVV
B4: TCR-9 (TCR, V domains shown)
Valpha: EDVEQSLFLSVREGDSSVINCTYTDSSSTYLYWYKQEPGAGLQLLTYIFSNMDMKQDQRLTVLLNKKDKHLSLRIADTQTGDSAIYFCAEKETAGNKLTFGGGTRVLVKP
Vbeta: EPEVTQTPSHQVTQMGQEVILRCVPISNHLYFYWYRQILGQKVEFLVSFYNNEISEKSEIFDDQFSVERPDGSNFTLKIRSTKLEDSAMYFCASTVQSPRTNEQFFGPGTRLTVL
B5: TCR-1 (TCR, V domains shown)
Valpha: QTVTQSQPEMSVQEAETVTLSCTYDTSENNYYLFWYKQPPSRQMILVIRQEAYKQQNATENRFSVNFQKAAKSFSLKISDSQLGDTAMYFCAPLGLVAGSARQLTFGSGTQLTVLP
Vbeta: GVSQDPRHKITKRGQNVTFRCDPISEHNRLYWYRQTLGQGPEFLTYFQNEAQLEKSRLLSDRFSAERPKGSFSTLEIQRTEQGDSAMYLCASSTDITSYEQYFGPGTRLTVT

The first assay has as its target CT45-IP antigenic peptide (…) in complex with HLA-A*02 presented on cells (peptide-loaded T2 cells; NCIH1703 and A375 tumor cells) (human). The assay can be described thus: cell-based or functional assay.
In turn, B1 had an EC50, half maximal killing capacity (functional avidity; CT45-IP peptide titration on T2 cells, luciferase release) of 18.6 nM.

In turn, B2 came in with an EC50, half maximal killing capacity (functional avidity; CT45-IP peptide titration on T2 cells, luciferase release) of 1.02 nM.

Molecule B3 had an EC50, half maximal killing capacity (functional avidity; CT45-IP peptide titration on T2 cells, luciferase release) of 4.69 nM.

In the case of B4, the EC50, half maximal killing capacity (functional avidity; CT45-IP peptide titration on T2 cells, luciferase release) is 0.15 nM.

On to B5, for which the EC50, half maximal killing capacity (functional avidity; CT45-IP peptide titration on T2 cells, luciferase release) was 7.78 nM.

A further assay has as its target T1, similar peptide SP-05-0002, source …. The assay can be described thus: killing.
For the molecule B1, the binding result is “no recognition”.

On to B2, for which the binding result is listed as “no recognition”.

As for B3, the binding result is “no recognition”.

With B4, the binding result is on record as “no recognition”.

Turning to B5, the binding result is “no recognition”.

The target of a further assay is T2, similar peptide SP-05-0003, source …. Kind of assay: killing.
Consider B1, for which the binding result is recorded as “no recognition”.

With B2, the binding result is on record as “no recognition”.

As for B3, the binding result is “no recognition”.

Take B4: the binding result is “no recognition”.

For B5, the binding result is reported as “no recognition”.

The target of another assay is T3, similar peptide SP-05-0004, source …. Kind of assay: killing.
Turning to B1, the binding result is reported as “no recognition”.

Regarding B2, the binding result is “no recognition”.

Regarding B3, the binding result is reported as “no recognition”.

Regarding B5, the binding result was “no recognition”.

For another assay, the target named is T4, similar peptide SP-05-0005, source …. Kind of assay: killing.
Regarding B1, the binding result is reported as “no recognition”.

For the molecule B2, the binding result is recorded as “no recognition”.

Turning to B3, the binding result was “no recognition”.

As for B4, the binding result was “no recognition”.

With B5, the binding result is reported as “no recognition”.

The target in another assay is T5, similar peptide SP-05-0006, source …. Kind of assay: killing.
For B1, the binding result is “no recognition”.

For B2, the binding result is “no recognition”.

Consider B3, for which the binding result is “no recognition”.

Take B4: the binding result was “no recognition”.

In the case of B5, the binding result was “no recognition”.

Another assay has as its target T6, similar peptide SP-05-0007, source …. Kind of assay: killing.
For B1, the binding result was “no recognition”.

Consider B2, for which the binding result is recorded as “no recognition”.

For B3, the binding result is “no recognition”.

For the molecule B4, the binding result was “no recognition”.

With B5, the binding result was “no recognition”.

In another assay the target is T7, similar peptide SP-05-0008, source …. The assay can be described thus: killing.
Regarding B1, the binding result was “no recognition”.

Turning to B2, the binding result is reported as “no recognition”.

On to B3, for which the binding result is “no recognition”.

As for B4, the binding result is listed as “no recognition”.

For the molecule B5, the binding result is recorded as “no recognition”.

The next assay has as its target T8, similar peptide SP-05-0009, source …. The assay can be described thus: killing.
Regarding B1, the binding result is on record as “no recognition”.

As to B2, the binding result is on record as “no recognition”.

As for B3, the binding result is reported as “no recognition”.

For B4, the binding result is on record as “no recognition”.

As to B5, the binding result was “no recognition”.

The target of another assay is T9, similar peptide SP-05-0010, source …. Kind of assay: killing.
For the molecule B1, the binding result is listed as “no recognition”.

Consider B2, for which the binding result is “no recognition”.

For the molecule B3, the binding result is recorded as “no recognition”.

Regarding B4, the binding result is listed as “no recognition”.

For B5, the binding result was “no recognition”.

Another assay has as its target T10, CT45-IP alanine variant, position 1 …. The assay can be described thus: killing.
For the molecule B2, the binding result is listed as “recognises”.

For the molecule B3, the binding result is listed as “recognises”.

The target in a further assay is T11, CT45-IP alanine variant, position 8 …. Kind of assay: killing.
For the molecule B1, the binding result was “recognises”.

Consider B2, for which the binding result is listed as “recognises”.

Regarding B3, the binding result is listed as “recognises”.

B5: the binding result is “recognises”.

The next assay has as its target T12, similar peptide SP-05-0001, source …. Kind of assay: killing.
On to B1, for which the binding result is “no recognition”.

Regarding B2, the binding result was “no recognition”.

Turning to B3, the binding result is recorded as “no recognition”.

With B4, the binding result is given as “no recognition”.

Regarding B5, the binding result is given as “no recognition”.

The next assay concerns the target CT45-IP-HLA-A*02 dextramer (human). Kind of assay: flow cytometry, dextramer staining of TCR-mRNA electroporated T cells, gated on CD3+. A general note: A flow cytometer gives signals particle by particle.
Turning to B1, the surface expression, % positive events by CT45-IP-HLA-A2*02 dextramer staining was found to be 22.6%.

Molecule B2 displayed a surface expression, % positive events by CT45-IP-HLA-A2*02 dextramer staining of 27.2%.

Molecule B3 yielded a surface expression, % positive events by CT45-IP-HLA-A2*02 dextramer staining of 39.1%.

Take B4: the surface expression, % positive events by CT45-IP-HLA-A2*02 dextramer staining is 44%.

In turn, B5 displayed a surface expression, % positive events by CT45-IP-HLA-A2*02 dextramer staining of 8.9%.

Another assay addresses T13, CT45 (CT45A1, A2, A3, A5 to A10); …. Kind of assay: luciferase release, 24 h, 1:1; CD8+ T cells with TCR mRNA, T2 cells with titrated peptide; full-length, on cells.
B1 had an EC50 of peptide of 18.6 nM.

In turn, B2 gave an EC50 of peptide of 1.02 nM.

In turn, B3 registered an EC50 of peptide of 4.69 nM.

For B4, the EC50 of peptide was 0.15 nM.

B5 registered an EC50 of peptide of 7.78 nM.

A further assay has the same target. Kind of assay: CT45-IP-HLA-A*02 dextramer on T cells with TCR mRNA; TCR found by tetramer sorting; full-length, on cells.
B1 had a dextramer-positive events of 22.6%.

B2 returned a dextramer-positive events of 27.2%.

Take B3: the dextramer-positive events turned out to be 39.1%.

As to B4, the dextramer-positive events amounted to 44%.

Consider B5, for which the dextramer-positive events was determined as 8.9%.

The values are drawn from patent US20230057987A1 (published 2023).
